Data as given in patent publication US20260116971A1 (published 2026).

T1: Chlorocebus (African green monkey) Nectin-2 (Chlorocebus (African green monkey))
T1 chain: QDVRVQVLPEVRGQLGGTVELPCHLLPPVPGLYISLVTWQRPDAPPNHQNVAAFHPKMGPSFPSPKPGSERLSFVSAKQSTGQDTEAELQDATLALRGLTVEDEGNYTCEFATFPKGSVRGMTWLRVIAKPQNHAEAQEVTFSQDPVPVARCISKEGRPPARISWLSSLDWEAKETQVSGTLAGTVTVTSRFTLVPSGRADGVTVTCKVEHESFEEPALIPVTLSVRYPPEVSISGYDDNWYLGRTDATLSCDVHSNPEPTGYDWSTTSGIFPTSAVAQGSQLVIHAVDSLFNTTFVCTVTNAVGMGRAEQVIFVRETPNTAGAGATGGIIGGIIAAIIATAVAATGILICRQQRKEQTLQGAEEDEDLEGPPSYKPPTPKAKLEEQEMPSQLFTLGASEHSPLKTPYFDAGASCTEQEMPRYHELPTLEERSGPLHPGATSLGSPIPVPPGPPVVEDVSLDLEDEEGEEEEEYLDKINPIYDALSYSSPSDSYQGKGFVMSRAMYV

T2: cynomolgus (Cyno) monkey (Macaca fascicularis) Nectin-2 (cynomolgus monkey (Macaca fascicularis), UniProt A0A2K5U084 32-538)
T2 chain: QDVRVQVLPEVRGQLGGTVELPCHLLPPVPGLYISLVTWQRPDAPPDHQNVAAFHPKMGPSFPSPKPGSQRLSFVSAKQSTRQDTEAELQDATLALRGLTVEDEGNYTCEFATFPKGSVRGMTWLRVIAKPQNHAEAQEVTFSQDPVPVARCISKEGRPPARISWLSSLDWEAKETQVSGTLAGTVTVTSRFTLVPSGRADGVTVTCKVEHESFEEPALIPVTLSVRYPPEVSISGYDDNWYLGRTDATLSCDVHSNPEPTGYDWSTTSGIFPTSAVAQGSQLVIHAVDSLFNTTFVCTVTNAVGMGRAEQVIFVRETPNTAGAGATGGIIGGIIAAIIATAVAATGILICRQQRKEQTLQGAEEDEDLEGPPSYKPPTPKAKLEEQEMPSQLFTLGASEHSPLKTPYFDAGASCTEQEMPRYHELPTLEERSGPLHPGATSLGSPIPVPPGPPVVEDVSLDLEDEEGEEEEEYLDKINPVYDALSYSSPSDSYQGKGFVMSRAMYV


What was measured:
[1] = target: T1, Chlorocebus (African green monkey) …; experiment: FACS binding; Vero cells
[2] = target: T2, cynomolgus (Cyno) monkey (Macaca …); experiment: FACS binding; CHO cells expressing cyno Nectin-2

Row | EC50 [1] [nM] | EC50 [2] [nM] | Binder
1 | 0.23 | 0.66 | anti-Nectin-2 monoclonal antibody clone 7 (antibody, V domains shown) VH: DVNLVESGGGLVKPGGSLKLSCAASGFTFSRFTMSWVRQTPEKTLDWVATISSGGSYTYYPDSVKGRFTISRDNAKNTLYLQMSSLKSEDTAMYYCTRDRDFYGPYYAMDYWGQGTSVTVSS VL: not shown
2 | 0.16 | 0.2 | anti-Nectin-2 monoclonal antibody clone 11 (antibody, V domains shown) VH: EVQLQQSGTVLTRPGASVKMSCKASGYIFTSYWIHWVKQRPGQGLEWIGAVYPGNSDSNYNQKFKAKAKLTAVTSTSTAYMELSSLTSEDSAVYYCTKLVGTFDYWGQGTTLTVSS VL: DIVMTQSQKFMSSSIGDRVSVTCKASQNVGINVVWYQQRAGQSPKTLIYSASYRYSGVPDRFTGSGSGTDFTLTISNVQSEDLAEYFCQQYNTNPFTFGSGTKLEIK
